Measurements published in US20240101645A1 (HENRY M JACKSON FOUNDATION FOR THE ADVANCEMENT OF MILITARY …, published 2024).

What was measured:
[1] = target: T1, HCoV-NL63 spike antigens (bead panel) (HCoV-NL63, UniProt Q6Q1S2 19-1296); assay: multiplex bead assay
T1 sequence: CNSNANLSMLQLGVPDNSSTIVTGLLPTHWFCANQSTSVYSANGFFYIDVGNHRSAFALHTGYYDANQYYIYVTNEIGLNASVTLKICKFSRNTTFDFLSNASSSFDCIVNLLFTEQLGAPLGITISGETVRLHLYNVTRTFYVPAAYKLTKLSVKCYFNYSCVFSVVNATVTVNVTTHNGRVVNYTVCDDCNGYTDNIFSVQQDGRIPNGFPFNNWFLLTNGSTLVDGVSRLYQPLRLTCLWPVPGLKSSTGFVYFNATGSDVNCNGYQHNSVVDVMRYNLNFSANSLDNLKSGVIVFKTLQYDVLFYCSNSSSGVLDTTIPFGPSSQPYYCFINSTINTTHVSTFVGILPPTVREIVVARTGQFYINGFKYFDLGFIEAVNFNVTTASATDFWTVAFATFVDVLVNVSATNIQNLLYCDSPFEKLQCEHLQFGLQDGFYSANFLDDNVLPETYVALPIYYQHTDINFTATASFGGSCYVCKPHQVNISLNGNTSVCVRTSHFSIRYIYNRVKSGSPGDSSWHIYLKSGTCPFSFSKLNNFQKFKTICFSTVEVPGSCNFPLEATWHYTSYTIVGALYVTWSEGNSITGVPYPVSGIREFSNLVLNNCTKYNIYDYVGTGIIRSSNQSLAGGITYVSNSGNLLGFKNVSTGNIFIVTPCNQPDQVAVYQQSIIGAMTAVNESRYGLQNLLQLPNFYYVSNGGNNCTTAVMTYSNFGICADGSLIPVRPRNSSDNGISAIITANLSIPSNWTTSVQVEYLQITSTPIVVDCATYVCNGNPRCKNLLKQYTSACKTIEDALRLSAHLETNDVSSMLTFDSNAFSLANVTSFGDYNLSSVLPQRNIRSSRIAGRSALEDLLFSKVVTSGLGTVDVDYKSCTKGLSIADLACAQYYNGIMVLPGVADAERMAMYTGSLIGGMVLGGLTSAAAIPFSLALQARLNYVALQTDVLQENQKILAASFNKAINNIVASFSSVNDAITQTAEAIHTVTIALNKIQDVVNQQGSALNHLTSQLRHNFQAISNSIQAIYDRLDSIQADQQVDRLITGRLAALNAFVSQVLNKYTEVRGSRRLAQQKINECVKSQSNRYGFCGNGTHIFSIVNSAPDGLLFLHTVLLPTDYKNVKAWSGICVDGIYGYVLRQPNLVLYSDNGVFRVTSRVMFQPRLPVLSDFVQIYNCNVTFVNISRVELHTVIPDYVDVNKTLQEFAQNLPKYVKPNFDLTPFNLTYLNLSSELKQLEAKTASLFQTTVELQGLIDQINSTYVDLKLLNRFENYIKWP

[2] = target: T2, HCoV-229E spike antigens (bead panel) (HCoV-229E, UniProt P15423 16-1115); assay: multiplex bead assay
T2 sequence: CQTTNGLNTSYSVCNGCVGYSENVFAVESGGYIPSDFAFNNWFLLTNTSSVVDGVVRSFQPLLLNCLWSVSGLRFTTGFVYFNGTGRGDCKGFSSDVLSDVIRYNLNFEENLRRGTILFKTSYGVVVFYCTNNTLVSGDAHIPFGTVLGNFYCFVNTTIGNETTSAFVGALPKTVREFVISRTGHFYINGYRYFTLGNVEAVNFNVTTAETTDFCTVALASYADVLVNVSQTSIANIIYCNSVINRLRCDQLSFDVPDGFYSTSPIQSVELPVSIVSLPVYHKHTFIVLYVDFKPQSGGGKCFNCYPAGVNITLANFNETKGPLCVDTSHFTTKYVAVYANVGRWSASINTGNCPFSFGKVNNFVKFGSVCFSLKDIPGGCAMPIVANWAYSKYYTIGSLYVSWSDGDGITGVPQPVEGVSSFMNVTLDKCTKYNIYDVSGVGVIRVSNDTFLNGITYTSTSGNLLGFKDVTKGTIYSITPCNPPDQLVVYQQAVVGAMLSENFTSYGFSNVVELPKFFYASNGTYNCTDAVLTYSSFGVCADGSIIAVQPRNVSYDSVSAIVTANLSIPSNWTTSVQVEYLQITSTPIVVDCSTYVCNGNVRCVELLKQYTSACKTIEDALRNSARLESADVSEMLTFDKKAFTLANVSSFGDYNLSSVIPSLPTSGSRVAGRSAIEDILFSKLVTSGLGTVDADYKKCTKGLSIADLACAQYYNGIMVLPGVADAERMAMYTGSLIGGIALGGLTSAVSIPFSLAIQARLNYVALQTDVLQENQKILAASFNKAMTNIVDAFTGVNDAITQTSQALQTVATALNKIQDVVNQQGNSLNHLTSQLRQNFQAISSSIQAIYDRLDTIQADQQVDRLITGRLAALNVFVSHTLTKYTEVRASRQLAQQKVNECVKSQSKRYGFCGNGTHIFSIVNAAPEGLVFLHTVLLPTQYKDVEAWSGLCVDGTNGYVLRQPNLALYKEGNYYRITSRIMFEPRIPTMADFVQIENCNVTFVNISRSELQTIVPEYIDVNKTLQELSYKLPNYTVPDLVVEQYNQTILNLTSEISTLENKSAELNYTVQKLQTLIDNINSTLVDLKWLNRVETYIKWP

[3] = target: SARS-CoV-1 spike antigens (bead panel) (SARS-CoV-1, UniProt P59594 14-1195); assay: multiplex bead assay
[4] = target: T3, HCoV-OC43 spike antigens (bead panel) (HCoV-OC43, UniProt P36334 14-1297); assay: multiplex bead assay
T3 sequence: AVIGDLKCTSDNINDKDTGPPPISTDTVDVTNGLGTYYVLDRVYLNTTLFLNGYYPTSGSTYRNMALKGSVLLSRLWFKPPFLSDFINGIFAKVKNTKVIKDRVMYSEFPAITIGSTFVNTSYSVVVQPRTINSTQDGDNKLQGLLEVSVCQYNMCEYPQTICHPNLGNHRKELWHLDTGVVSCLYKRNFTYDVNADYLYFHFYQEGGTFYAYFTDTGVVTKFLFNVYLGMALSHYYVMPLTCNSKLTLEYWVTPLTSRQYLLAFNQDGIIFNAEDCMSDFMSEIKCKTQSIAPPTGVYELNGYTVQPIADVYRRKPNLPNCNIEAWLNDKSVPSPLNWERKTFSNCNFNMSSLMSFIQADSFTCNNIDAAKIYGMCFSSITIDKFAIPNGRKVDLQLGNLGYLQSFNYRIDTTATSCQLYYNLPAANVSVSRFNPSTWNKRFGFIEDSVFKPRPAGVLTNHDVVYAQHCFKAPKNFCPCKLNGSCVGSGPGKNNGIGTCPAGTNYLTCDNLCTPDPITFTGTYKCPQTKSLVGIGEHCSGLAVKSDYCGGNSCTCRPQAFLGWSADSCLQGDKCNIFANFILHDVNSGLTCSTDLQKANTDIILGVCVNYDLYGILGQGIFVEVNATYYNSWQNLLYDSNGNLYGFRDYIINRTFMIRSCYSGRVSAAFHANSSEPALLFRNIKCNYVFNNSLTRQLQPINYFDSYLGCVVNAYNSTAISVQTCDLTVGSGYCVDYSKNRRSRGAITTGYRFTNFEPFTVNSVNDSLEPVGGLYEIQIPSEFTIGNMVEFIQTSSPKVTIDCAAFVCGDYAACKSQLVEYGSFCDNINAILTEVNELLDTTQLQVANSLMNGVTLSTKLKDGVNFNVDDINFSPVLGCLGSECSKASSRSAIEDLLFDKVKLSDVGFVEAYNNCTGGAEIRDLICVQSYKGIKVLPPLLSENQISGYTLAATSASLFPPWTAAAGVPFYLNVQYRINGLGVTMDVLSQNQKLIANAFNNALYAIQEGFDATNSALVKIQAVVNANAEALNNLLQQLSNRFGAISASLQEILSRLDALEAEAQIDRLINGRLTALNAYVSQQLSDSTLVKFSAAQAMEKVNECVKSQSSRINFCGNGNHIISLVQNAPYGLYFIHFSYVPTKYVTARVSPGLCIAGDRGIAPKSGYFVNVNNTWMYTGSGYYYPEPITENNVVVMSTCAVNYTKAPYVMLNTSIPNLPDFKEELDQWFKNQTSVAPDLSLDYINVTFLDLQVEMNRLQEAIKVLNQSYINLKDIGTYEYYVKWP

[5] = target: SARS-CoV-2 S on pseudovirions (Wuhan Hu-1 / IL1/2020, last 18 amino acids removed) (SARS-CoV-2, UniProt P0DTC2 14-1273); assay: cell-based or functional assay

B1: COV_1007 (antibody, V domains shown)
VH: QVTLKESGPVLVKPTETLTLTCTVSGFSLINARVGVSWIRQPPGKALDWLAHIFSSDEKSYSTSLKSRLTISKDTSKSQVVLTMTNMDPVDTATYYCARIRWLSSYYFDYWGQGTLVTVSS
VL: DIRMTQSPSSVSASVGDRVTITCRASQGISNWLAWYQQKPGKAPKLLIYAASSLQSGVPSRFSGGGSGTDFTLTISSLQPEDFATYYCQQANSFLLTFGGGTKVEIK
notes: human IgG1
binding result [1]: no binding | binding result [2]: no binding | binding result [3]: no binding | binding result [4]: no binding | Mean IC50, pSV neutralization [5]: 9 µg/ml | Mean IC80, pSV neutralization [5]: ≥ 25 µg/ml
